Measured values reported in a protein production outcome set (Wang et al. 2014).

assay: label from the status in PepcDB records

Sequence | protein production
MKEVLFISEMERGRAEIESRVSNIKTTQDFGYREKIKEKKDASTAYAACISELLLEEKVKKIAVAYDFPIFYSNYLTEAGFTIVPVKSPFRKMRSVKGPEEIEAIKYAQMAGEKAMEAAITLIADAEEKDGVLYFEGQVLTGAKVNSVIDHTLLDFGCEAEETIVSCGEDTSNPHGTTEGPLRANAPIILDIFPRSKKKRYFADMTRTVLRGEASEKLKEMYETVLVAQQKALEMVKPGIHSSEIHRAVCDLFEARGYHTYRSGSKAGFTHSTGHGVGLDIHELPSVGESGVLLETGNVITIEPGLYYPGIGGIRLEDMVLVTKTGYENFTGLEKKFVLKSFYNLEHHHHHH | failed
MKFDNYIFDFDGTLADTKKCGEVATQSAFKACGLTEPSSKEITHYMGIPIEESFLKLADRPLDEAALAKLIDTFRHTYQSIEKDYIYEFAGITEAITSLYNQGKKLFVVSSKKSDVLERNLSAIGLNHLITEAVGSDQVSAYKPNPEGIHTIVQRYNLNSQQTVYIGDSTFDVEMAQHAGVPSAAVTWGAHDARSLLHSNPDFIINDPSEINTVL | failed
MKFKTIIKASYSIIFLSFQKVLHWEHIKFTAFKNLLSVSTKILIDKSSSVKFAGKICTESNVELKALNGGKLFIAENVFINSNSIVVALDNIHIGSNTLIGPGVLIFDHDHDFEKDKNSGTKNGRHFVTKPIRIESDVWIGGNSVILKGVTIGKGAVIAAGSIVLKDVEPYCLYAGNPAKKIRSY | failed
MKFKTRDLVLIPLFTAMTIIGAFIKIPVGVVPINLQFLFTALSGVLLGGALGAVSQILYVALGLIGLPVFTSGGGLSYIFTPTFGYLIGYILAAFIIGKITHSRKPKFTTIFFSCILGLIAVYFIGTTYLYIILNYVAGKNVSIIASIKLGVLMFIPGDIVKCIITALLGSRILPILNKTSLNN | failed
MKFLVENLNGSSFELEVDYRDTLLVVKQKIERSQHIPVSKQTLIVDGIVILREDLTVEQCQIVPTSDIQLEVSSDDDNPNHNDCDQKPQTEQSPALPLVSAEEYFERQDWPLTAEELRQIYSYRPEHEG | failed
MKFPGQRKSKHYFPVKTRDPLLEQLTQQPQPFATYISGIDQTLVDIEAKVEDELLSRYGLPKGNSTLINDEQAHTLYTELKQNGLISDEFAGGTIGNTVHNYSILADDRSVLFGVMSQNIEVGSYAYRYLCNTSSKVDLNYLQPVDGPIGRCFTLISDCGERTFAISKGAMDKLTPEYIDKDIVQGSSALVLTAYLMRASGGDRITDAAMCAIEYAKAAEVPVVLTLGTRFLIEEDPIWWQNFIKEHVTILAMNEDEGEALTGFRDPLLASEKALEWCDMVLTTAGPIGLYTAGYTDDAEKRETSHTLLPGAIPEFNRYEFSRPKLKSDCENPIKVYAHISPYMGGPEKIGNTNGAGDGALSALLHDLAANTFHKTNVPGSSKHKRDGLCYSSFSQICKYANRVAYEVLAQHSPRLSRGLPEREDSLEESYWER | failed
MKFRTLLVVNKVVVFAKLLSVLQKVEKTAFLILCSEADEEIRLVTKADAFNGLYTSALLRKSEFFEDYRIESKYHNLIGLEFQLSAFEDAIRASSNAAGVIMKLSKKEQACISFHIQTLTSNIIQDVPVRVITPTQIEELAEPNLPPCSGVVLSPLQKIAILIEKFRHVSQSIQLTLQSTQAAELHIKCHSETLEVETCIKGLKIVTLNSEESSSEIEQSTSASVDGRHLSKAMFAAYLIPQRAFCCKLSILNHGNIHWIH | failed
MKFSEECRSAAAEWWEGSFVHPFVQGIGDGTLPIDRFKYYVLQDSYYLTHFAKVQSFGAAYAKDLYTTGRMASHAQGTYEAEMALHREFAELLEISEEERKAFKPSPTAYSYTSHMYRSVLSGNFAEILAALLPCYWLYYEVGEKLLHCDPGHPIYQKWIGTYGGDWFRQQVEEQINRFDELAENSTEEVRAKMKENFVISSYYEYQFWGMAYRKEGWSDSAIKEVEECGASRHNG | not failed
MKFSVLMSLYIKENPQFLRECFESLVAQTRQADEIVLVFDGVVTPDLEFVVTEFETKLPLKLVKLPQNRGLGKALNEGLLHCDYDWVFRMDTDDICVPDRFEKQVAFIEQHPESIIFGGQIAEFGKNVNDIVAYRNVPTSAQEIIKFTQKRCPFNHMTVAYQKSAVINCGGYEDLQEDYYLWIKLVAQGLYMANLPDILVYARVGNGMVLEHHHHHH | not failed
